Measured values reported in article PMC11341715.

What was measured:
[1] = molecular target: biotinylated FZD3 cysteine-rich domain (CRD) (human) (UniProt Q9NPG1); assay: BLI; Octet Red 96e; biotinylated FZD3 or FZD6 CRD immobilised, Nb8 or Wnt5a in solution; 10 mM HEPES pH 7.5, 150 mM NaCl, 0.02% Tween 20, 0.005% GDN; 1:1 binding model
[2] = molecular target: biotinylated FZD6 cysteine-rich domain (CRD) (human); assay: as above
[3] = molecular target: biotinylated multidomain FZD3 (C-terminally truncated, in detergent) (human) (UniProt Q9NPG1); assay: BLI; Octet Red 96e; biotinylated multidomain FZD3 or FZD6 in detergent immobilised, nanobody or DEP in solution; 10 mM HEPES pH 7.5, 150 mM NaCl, 0.02% Tween 20, 0.005% GDN; 1:1 binding model

Sequence of biotinylated FZD6 cysteine-rich domain (CRD) (human) (O60353 22-139): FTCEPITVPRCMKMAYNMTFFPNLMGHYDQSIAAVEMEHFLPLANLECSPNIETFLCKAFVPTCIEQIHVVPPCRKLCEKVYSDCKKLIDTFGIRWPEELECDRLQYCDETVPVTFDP

B1: human Wnt5a (ligand)
chain: IIGAQPLCSQLAGLSQGQKKLCHLYQDHMQYIGEGAKTGIKECQYQFRHRRWNCSTVDNTSVFGRVMQIGSRETAFTYAVSAAGVVNAMSRACREGELSTCGCSRAARPKDLPRDWLWGGCGDNIDYGYRFAKEFVDARERERIHAKGSYESARILMNLHNNEAGRRTVYNLADVACKCHGVSGSCSLKTCWLQLADFRKVGDALKEKYDSAAAMRLNSRGKLVQVNSRFNSPTTQDLVYIDPSPDYCVRNESTGSLGTQGRLCNKTSEGMDGCELMCCGRGYDQFKTVQTERCHCKFHWCCYVKCKKCTEIVDQFVCK
B1 showed a Kd [1] of 83 nM.

B2: Nb8 (VHH)
VHH: QVQLVESGGGLVQAGGSLRLSCAASGSISSINAMGWYRQAPGKQRELVAAITSGGSTNYADSVKGRFTISRDNAKNTVYLQMNSLKPGDTAVYYCNLLYYIDYVEYDYWGQGTQVTVSS
Work on B2 yielded a Kd [2] of 1200 nM.

B3: DVL2 DEP domain (domain or fragment)
chain: PESGLEVRDRMWLKITIPNAFLGSDVVDWLYHHVEGFPERREARKYASGLLKAGLIRHTVNKITFSEQCYYVFGD
B3 was tested, and the Kd [3] was 460 nM.
